Measurements from patent US20250258178A1 (SHIONOGI, published 2025).

T1: Peptide #2 (human)
T1 construct: 15-mer of human HRG printed on a PEPperCHIP peptide microarray
T1 peptide: DHSHGPPLPQGPPPL

T2: Peptide #3 (human)
T2 construct: 15-mer of human HRG printed on a PEPperCHIP peptide microarray
T2 peptide: HSHGPPLPQGPPPLL

T3: Peptide #4 (human)
T3 construct: 15-mer of human HRG printed on a PEPperCHIP peptide microarray
T3 peptide: SHGPPLPQGPPPLLP

T4: Peptide #5 (human)
T4 construct: 15-mer of human HRG printed on a PEPperCHIP peptide microarray
T4 peptide: HGPPLPQGPPPLLPM

T5: Peptide #6 (human)
T5 construct: 15-mer of human HRG printed on a PEPperCHIP peptide microarray
T5 peptide: GPPLPQGPPPLLPMS

T6: Peptide #7 (human)
T6 construct: 15-mer of human HRG printed on a PEPperCHIP peptide microarray
T6 peptide: PPLPQGPPPLLPMSC

T7: Peptide #8 (human)
T7 construct: 15-mer of human HRG printed on a PEPperCHIP peptide microarray
T7 peptide: PLPQGPPPLLPMSCS

T8: human histidine-rich glycoprotein (HRG), purified from human plasma (human, UniProt P04196 19-525)
T8 construct: also called human purified HRG; human purified HRG protein
T8 sequence: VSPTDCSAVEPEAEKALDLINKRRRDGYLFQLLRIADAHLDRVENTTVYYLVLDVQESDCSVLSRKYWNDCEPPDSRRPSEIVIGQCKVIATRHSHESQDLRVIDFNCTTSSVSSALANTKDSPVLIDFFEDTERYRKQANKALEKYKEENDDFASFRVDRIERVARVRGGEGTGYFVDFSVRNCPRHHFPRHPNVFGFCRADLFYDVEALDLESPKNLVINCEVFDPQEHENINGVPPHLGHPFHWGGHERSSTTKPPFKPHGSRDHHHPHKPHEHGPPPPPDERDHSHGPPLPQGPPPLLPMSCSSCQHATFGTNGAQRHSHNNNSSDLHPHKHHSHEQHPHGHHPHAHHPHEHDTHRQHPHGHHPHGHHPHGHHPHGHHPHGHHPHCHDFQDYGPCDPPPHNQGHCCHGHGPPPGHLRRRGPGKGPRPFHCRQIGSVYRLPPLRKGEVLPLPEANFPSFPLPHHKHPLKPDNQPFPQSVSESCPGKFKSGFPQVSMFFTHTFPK

T9: Peptide #11 (human)
T9 construct: 15-mer of human HRG on the peptide microarray; the printed position spans only 14 residues
T9 peptide: HPHGHHPHGHHPHGH

T10: Peptide #12 (human)
T10 construct: 15-mer of human HRG on the peptide microarray; the printed position spans only 14 residues
T10 peptide: PHGHHPHGHHPHGHH

T11: Peptide #13 (human)
T11 construct: 15-mer of human HRG on the peptide microarray; the printed position spans only 14 residues
T11 peptide: HGHHPHGHHPHGHHP

T12: Peptide #14 (human)
T12 construct: 15-mer of human HRG on the peptide microarray; the printed position spans only 14 residues
T12 peptide: GHHPHGHHPHGHHPH

T13: Peptide #16 (human)
T13 construct: 15-mer of human HRG on the peptide microarray; the printed position spans only 14 residues
T13 peptide: HPHGHHPHGHHPHCH

T14: Peptide #17 (human)
T14 construct: 15-mer of human HRG printed on a PEPperCHIP peptide microarray
T14 peptide: PHGHHPHGHHPHCHD

T15: Peptide #19 (human)
T15 construct: 15-mer of human HRG printed on a PEPperCHIP peptide microarray
T15 peptide: GHHPHGHHPHCHDFQ

T16: Peptide #20 (human)
T16 construct: 15-mer of human HRG printed on a PEPperCHIP peptide microarray
T16 peptide: HHPHGHHPHCHDFQD

T17: Peptide #21 (human)
T17 construct: 15-mer of human HRG printed on a PEPperCHIP peptide microarray
T17 peptide: HPHGHHPHCHDFQDY

T18: Peptide #22 (human)
T18 construct: 15-mer of human HRG printed on a PEPperCHIP peptide microarray
T18 peptide: PHGHHPHCHDFQDYG

T19: Peptide #24 (human)
T19 construct: 15-mer of human HRG printed on a PEPperCHIP peptide microarray
T19 peptide: GHHPHCHDFQDYGPC

T20: Peptide #25 (human)
T20 construct: 15-mer of human HRG printed on a PEPperCHIP peptide microarray
T20 peptide: HHPHCHDFQDYGPCD

B1: anti-HRG monoclonal antibody 69-1A (antibody, V domains shown)
VH: EVKLEESGGGLVQPGGSMKLSCAASGFTFSDAWMDWVRQSPEKGLEWVAEIRSKANNHGTYYAESVKGRFTISRDDSKSSVYLRMNSLSAEDTGIYYCTRPFAYWGQGTLVTVSA
VL: DVVVTQTPLSLPVSLGDQASISCRSSQSLVHIDGNTYFHWYVQKPGQSPKLLIYKVSNRFSGVPDRFSGSGSGTDFTLKISRVEAEDLGVYFCSQSTHVPLTFGAGTKLELK
notes: Mouse hybridoma monoclonal; also called clone No. 69-1A
B2: anti-HRG monoclonal antibody 75-2D (antibody, V domains shown)
VH: QVQLQQSGAELMKPGASVKISCKATGYTFSSYWIEWVKQRPGHGLEWIGEILPGSGRTNYNEKFKGKATFTADTSSNTAYMQLSSLTSEDSAVYYCARYSYFYYFDYWGQGTTLTVSS
VL: DNVLTQSPAIMSASLGERVTMTCTASSSVSSSYLHWYQQKPGSSPKLWIYSTSNLASGVPARFSGSGSGTSYSLTISSMEAEDAATYYCHQYHRSPWTFGGGTKLEIK
notes: Mouse hybridoma monoclonal; also called clone No. 75-2D

What was measured:
Peptide #2 = biological target: T1, Peptide #2; assay: peptide microarray, fluorescent anti-mouse IgG
Description: (§1) An overlapping peptide scanning method was performed to find out specific antibody-binding peptide epitopes. The amino acid sequence of the HRG protein was obtained in NCBI protein database. PEPperPrint (registered trademark) (Heidelberg, Germany) was commissioned to prepare PEPperCHIP peptide microarrays designed from HRG protein sequences. Each peptide consisted of an overlapping peptide library having 15 amino acid residues overlapping 14 amino acid residues and was extended at the N- and C-terminus with a neutral GSGSGSG linker to ensure that the peptides were separated from each other. […] After treatment of 21 types of anti-HRG monoclonal antibodies, it stained with an anti-mouse IgG polyclonal secondary antibody followed by reading fluorescence intensity on a scanner to quantify protein-antibody binding.
(§2) Each microarray was processed as follows. Before incubation with a sample, a standard buffer was applied on slides followed by treating with a blocking buffer. The microarray was treated with a fluorescently-labeled anti-mouse IgG secondary antibody followed by the measurement of background fluorescence intensity caused by non-specific interactions using a scanner.
(§3) The microarray was incubated with the 21 types of anti-HRG monoclonal antibodies. The microarray was stained with a fluorescently labeled anti-mouse IgG secondary antibody. The fluorescence intensity at each position was measured by a scanner.

Peptide #3 = biological target: T2, Peptide #3; assay: peptide microarray, fluorescent anti-mouse IgG
Description: as §1, §2, §3

Peptide #4 = biological target: T3, Peptide #4; assay: peptide microarray, fluorescent anti-mouse IgG
Description: as §1, §2, §3

Peptide #5 = biological target: T4, Peptide #5; assay: peptide microarray, fluorescent anti-mouse IgG
Description: as §1, §2, §3

Peptide #6 = biological target: T5, Peptide #6; assay: peptide microarray, fluorescent anti-mouse IgG
Description: as §1, §2, §3

Peptide #7 = biological target: T6, Peptide #7; assay: peptide microarray, fluorescent anti-mouse IgG
Description: as §1, §2, §3

Peptide #8 = biological target: T7, Peptide #8; assay: peptide microarray, fluorescent anti-mouse IgG
Description: as §1, §2, §3

[1] = biological target: T8, human histidine-rich glycoprotein …; assay: sandwich ELISA, HRG captured by solid phase 42-10D
Description: The capture antibody solution was dispensed at 25 μL per well into 384-well Maxisorp plates (NUNC), and the plates were incubated at room temperature for 3 hours. The plates were washed twice with 120 μL of washing solution per well (0.05% Tween 20-containing PBS). A blocking solution (1% BSA-containing PBS) was dispensed at 30 μL per well, and the plates were incubated at room temperature for 3 hours. The blocking solution was removed followed by dispensing the standard substance for evaluation at 20 μL per well (n=2), and the plates were incubated at room temperature for 3 hours. After washing the plates four times with the washing solution as described above, the solution of each detector antibody was dispensed at 10 μL per well, followed by dispensing a horseradish peroxidase-streptavidin solution (0.05 μg/mL) at 10 μL per well, and the plates were incubated at room temperature for 1 hour. After washing the plates four times with the washing solution as described above, a chromogenic substrate solution (TMB (3,3′,5,5′-tetramethylbenzidine)) was dispensed at 20 μL per well followed by incubating the plates at room temperature for 10 minutes, then a reaction stop solution 0.5 M H₂SO₄ was added at 20 μL/well, and the absorbance at 450 nm was measured.
The results regarding the evaluation of combinations chosen from 21 types of anti-HRG monoclonal antibodies are shown in Table 1. In Table 1, the absorbance at a wavelength of 450 nm of each combination was determined as follows: less than 1.0 OD: −, 1.0 OD or more and less than 2.0 OD: +, 2.0 OD or more and less than 3.0 OD: ++, and 3.0 OD or more: +++. The combinations of antibodies which could construct a sandwich ELISA system having enough level of absorbance change were 86 sets evaluated as ++ or +++ in Table 1.

Peptide #11 = biological target: T9, Peptide #11; assay: peptide microarray, fluorescent anti-mouse IgG
Description: as §1, §2, §3

Peptide #12 = biological target: T10, Peptide #12; assay: peptide microarray, fluorescent anti-mouse IgG
Description: as §1, §2, §3

Peptide #13 = biological target: T11, Peptide #13; assay: peptide microarray, fluorescent anti-mouse IgG
Description: as §1, §2, §3

Peptide #14 = biological target: T12, Peptide #14; assay: peptide microarray, fluorescent anti-mouse IgG
Description: as §1, §2, §3

Peptide #16 = biological target: T13, Peptide #16; assay: peptide microarray, fluorescent anti-mouse IgG
Description: as §1, §2, §3

Peptide #17 = biological target: T14, Peptide #17; assay: peptide microarray, fluorescent anti-mouse IgG
Description: as §1, §2, §3

Peptide #19 = biological target: T15, Peptide #19; assay: peptide microarray, fluorescent anti-mouse IgG
Description: as §1, §2, §3

Peptide #20 = biological target: T16, Peptide #20; assay: peptide microarray, fluorescent anti-mouse IgG
Description: as §1, §2, §3

Peptide #21 = biological target: T17, Peptide #21; assay: peptide microarray, fluorescent anti-mouse IgG
Description: as §1, §2, §3

Peptide #22 = biological target: T18, Peptide #22; assay: peptide microarray, fluorescent anti-mouse IgG
Description: as §1, §2, §3

Peptide #24 = biological target: T19, Peptide #24; assay: peptide microarray, fluorescent anti-mouse IgG
Description: as §1, §2, §3

Peptide #25 = biological target: T20, Peptide #25; assay: peptide microarray, fluorescent anti-mouse IgG
Description: as §1, §2, §3

Binder | binding result (Peptide #2) | binding result (Peptide #3) | binding result (Peptide #4) | binding result (Peptide #5) | binding result (Peptide #6) | binding result (Peptide #7) | binding result (Peptide #8) | absorbance at 450 nm [1] [OD] | binding result (Peptide #11) | binding result (Peptide #12) | binding result (Peptide #13) | binding result (Peptide #14) | binding result (Peptide #16) | binding result (Peptide #17) | binding result (Peptide #19) | binding result (Peptide #20) | binding result (Peptide #21) | binding result (Peptide #22) | binding result (Peptide #24) | binding result (Peptide #25)
B1 | binds | binds | binds | binds | binds | binds | binds | < 1 |  |  |  |  |  |  |  |  |  |  |  | 
B2 |  |  |  |  |  |  |  |  | binds | binds | binds | binds | binds | binds | binds | binds | binds | binds | binds | binds
